For data set [1], the system named is peripheral blood T cell receptors (T-cell clones). Nature of the data set: Molecular analysis of peripheral blood T cell receptors (TCR clonality, immunoSeq) on day 29. The format is in vivo, human patients. The note with it: for Median expanded T cell clones at Day 29, n: Day 29, first cycle of Q4W dosing, immunoSeq paired samples. The text has this: This trend was not seen with monotherapy D or the lower dose T combination (T75+D) (FIG. 15). Additionally, greater clonal expansion of T-cells was associated with better OS and seen in D+T combination arms (FIG. 16).

The test system of data set [2] is advanced hepatocellular carcinoma (HCC). Nature of the data set: Randomized open-label multi-center clinical study of durvalumab and tremelimumab (Example 2): efficacy (ORR, OS, PFS). It is filed as in vivo, human patients. The note with it: for ORR, % / Median (95% CI) OS, mo: Table 1, per study arm; for Median (95% CI) OS, mo: 95% CI given; for Median PFS (95% CI): patients with advanced HCC, Kaplan-Meier (FIG. 11). The text has this:
Primary analysis of all tumor assessment-related endpoints was based on BICR assessments according to RECIST v1.1.
Evaluation of target lesions were classified as follows: • Complete Response—Disappearance of all target lesions. Any pathological lymph nodes (whether target or non-target) must have reduction in short axis to <10 mm (the sum may not be “0” if there are target nodes). • Partial Response—At least a 30% decrease in the sum of the diameters of target lesions, taking as reference the baseline sum diameters. • Progressive Disease—At least a 20% increase in the sum of diameters of target lesions, taking as reference the smallest sum on study (this includes the baseline sum if that is the smallest on study). […] (Note: The appearance of one or more new lesions may be considered progression.) • Stable Disease—Neither sufficient shrinkage to qualify for PR nor sufficient increase to qualify for PD, taking as reference the smallest sum of diameters while on study.
The study disclosed below is a randomized, open-label, multi-center, global, clinical study to assess the efficacy and safety of durvalumab monotherapy and durvalumab plus tremelimumab combination therapy versus sorafenib in the treatment of immune checkpoint inhibitor-naïve patients with HCC who progressed on, were intolerant to, or refused sorafenib. In the foregoing disclosure, a flat-dose regimen of 1500 mg (approximately equivalent to 20 mg/kg) of durvalumab plus 300 mg (equivalent to 4 mg/kg) of tremelimumab was used in this study.
The study population included patients 18 years of age or older with advanced HCC, Barcelona Clinic Liver Cancer Stage B (not eligible for locoregional therapy) or stage C, and Child-Pugh A classification liver disease. Patients must not have received any prior systemic therapy for HCC. Patients were stratified according to macrovascular invasion (yes versus no), etiology of liver disease (hepatitis B virus [confirmed HBV] versus hepatitis C virus [confirmed HCV] versus others), and performance status (Eastern Cooperative Oncology Group [ECOG] 0 versus 1).
A total of 332 patients were enrolled (T300+D, n=75; durvalumab, n=104; tremelimumab, n=69; T75+D, n=84). Patients were randomized in an equal ratio to groups treated with durvalumab 1500 mg monotherapy (D), tremelimumab 750 mg monotherapy (T), combination therapy with durvalumab 1500 mg plus tremelimumab 75 mg×4 doses (T75+D) followed by durvalumab Q4W, combination therapy with durvalumab 1500 mg plus tremelimumab 300 mg×1 dose (T 300+D) followed by durvalumab Q4W. Upon closure to further enrollment into the T75+D arm, patients were randomized in an equal ratio to groups treated with D, T300+D, and Sorafenib. Durvalumab and tremelimumab were administered via intravenous (IV) infusion every 4 weeks (Q4W). Sorafenib was administered orally BID (see FIGS. 3 and 4).
Tremelimumab 750 mg via IV infusion Q4W starting at Week 0 for seven doses and then Q12W until confirmed PD, unacceptable toxicity, or any discontinuation criterion was met. (Note: If a patient's weight decreased to ≤30 kg, the patient received weight-based dosing of tremelimumab 10 mg/kg Q4W, until the weight increased to >30 kg, at which point the patient received the flat dose of tremelimumab 750 mg Q4W).
• Durvalumab 1500 mg via IV infusion Q4W starting at Week 0 until confirmed PD, unacceptable toxicity, or any discontinuation criterion was met. (Note: If a patient's weight decreased to ≤30 kg, the patient received weight-based dosing of durvalumab 20 mg/kg Q4W, until the weight increased to >30 kg, at which point the patient received the flat dose of durvalumab 1500 mg Q4W.) […]

Data set [3] has as its system proliferating CD8+ Ki67+ T cells. Nature of the data set: Exposure-response model: tremelimumab trough concentration vs change from baseline of CD8+ Ki67+ T cell counts. It is filed as in vivo, patients with uHCC. The method, then:
(§1) Finally, an exposure-response model was developed to describe the relationship between tremelimumab exposure and proliferating CD8+ Ki67+ T cells in patients with uHCC. Relationships between tremelimumab trough concentration after the first dose (Cmin) and the maximum change from baseline (CFB) for CD8+ Ki67+ T cell counts were evaluated using linear and non-linear regression models. Covariate effects were evaluated on the model intercept and the drug effect (Emax) using a stepwise search approach. The relationship between CD8+Ki67+ T cell count CFB and tremelimumab trough concentration was best described by an Emax model. The only statistically significant and well estimated covariate effect was the baseline CD8+ Ki67+ T cell count on Emax. The maximum effect was higher in patients with lower baseline CD8+ Ki67+ T cell counts and lower in patients with higher baseline CD8+ Ki67+ T cell counts. At the 10th, median, and 90th percentiles of baseline CD8+(3, 9, and 25 cells/uL), the maximum effect is 593%, 341%, and 77.9% change from baseline, respectively.

A short description of data set [4]: Tremelimumab trough concentration after the first dose (Cmin). The format is in vivo, patients with uHCC. The note with it: 300 mg tremelimumab. The method, then:
as §1

The source of these data is patent US20240239893A1, “METHODS AND COMBINATIONS FOR THE TREATMENT OF CANCER USING IMMUNE CHECKPOINT INHIBITOR ANTIBODIES” (AstraZeneca AB, priority 2020, published 2024).

As to “durvalumab: human monoclonal antibody directed against human PD-L1; in Example 2 given as 1500 mg monotherapy Q4W (D)”, the “clonal expansion of T cells in responders compared to non-responders” value in data set [1] (Day 29 (FIG. 15)) was “not seen”. Moreover, the “Median expanded T cell clones at Day 29, n” value in data set [1] was 32 (13, 46). Moreover, in data set [2], the “ORR, %” value is 10.6%; the “Median (95% CI) OS, mo” value stood at 13.6 mo; the “Median PFS (95% CI)” value is given as 2.07 (1.84-2.83) months.

B1: tremelimumab: anti-CTLA-4 antibody; in Example 2 given as 750 mg monotherapy Q4W for seven doses then Q12W (T) (antibody)
VH: GVVQPGRSLRLSCAASGFTFSSYGMHWVRQAPGKGLEWVAVIWYDGSNKYYADSVKGRFTISRDNSKNTLYLQMNSLRAEDTAVYYCARDPRGATLYYYYYGMDVWGQGTTVTVSSASTKGPSVFPLAPCSRSTSESTAALGCLVKDYFPEPVTVSWNSGALTSGVH
VL: PSSLSASVGDRVTITCRASQSINSYLDWYQQKPGKAPKLLIYAASSLQSGVPSRFSGSGSGTDFTLTISSLQPEDFATYYCQQYYSTPFTFGPGTKVEIKRTVAAPSVFIFPPSDEQLKSGTASVVCLLNNFYPREAKV
modifications: heavy chain variable region; light chain variable region
As for B1, the “maximum effect (Emax), change from baseline of CD8+ Ki67+ T cell count” value (“maximum effect (Emax), change” below) in data set [3] (10th percentile of baseline CD8+ (3 cells/uL)) is 593%. Also, the “maximum effect (Emax), change” value in data set [3] (90th percentile of baseline CD8+ (25 cells/uL)) was determined as 77.9%. Also, the “estimated half-maximal effective concentration (EC50)” value in data set [3] (Emax model, CD8+Ki67+ T cell count change from baseline vs tremelimumab Cmin) was 5.24 µg/mL. In data set [3] (median baseline CD8+ (9 cells/uL)), the “maximum effect (Emax), change” value was determined as 341%. For the same molecule, in data set [1], the “Median expanded T cell clones at Day 29, n” value is reported as 100 (50, 160). Moreover, in data set [4], the “median Cmin (trough concentration after the first dose)” value is 12900 ng/mL. Moreover, in data set [2], the “ORR, %” value is 7.2%; the “Median (95% CI) OS, mo” value is recorded as 15.1 mo; the “Median PFS (95% CI)” value is on record as 2.69 (1.87-5.29) months.
